Among the data in patent publication US20260356960 (published 2026) are Kd values, retold here.

The target in one experiment is T1, sST2 recombinant (human).
T1 chain: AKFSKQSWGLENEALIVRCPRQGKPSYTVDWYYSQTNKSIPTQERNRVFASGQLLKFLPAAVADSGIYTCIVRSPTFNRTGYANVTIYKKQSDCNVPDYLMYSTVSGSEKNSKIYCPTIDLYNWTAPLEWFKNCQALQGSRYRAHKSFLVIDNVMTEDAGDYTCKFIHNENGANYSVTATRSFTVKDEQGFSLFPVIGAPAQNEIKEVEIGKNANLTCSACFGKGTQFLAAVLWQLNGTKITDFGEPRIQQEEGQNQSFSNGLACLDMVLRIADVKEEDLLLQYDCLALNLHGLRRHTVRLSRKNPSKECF
In words: ELISA.

The target in another experiment is T2, SKECF peptide (human, not fully specified).
T2 chain: SKECF
The experiment in a line: SPR. On the technique in general: SPR reads the build-up and loss of mass on a sensor chip optically.

Where no end group is shown, it is not given here.

B1: scFv-αsST2 (scFv 96-1) (antibody)
chain: MQVQLQQWGAGLLKPSETLSLTCAVYGGSFSGYYWSWIRQPPGKGLEWIGEINHSGSTNYNPSLKSRVTVSLDTSKNQFSLKLSSVTAADTAVYYCARGRGLVRFDSWGQGTTVTVSSGGGGSGGGGSGGGGSEIVLTQSPGTLSLSPGDRATLSCRASQFVGSSSVAWYQQRPGQAPRLLIYAAVSRASGIPDRFSGGGSGTDFTLTISRLEPEDSAVYYCLQYGSALYTFGQGTKLEIK
modifications: listing feature
Take B1: the Kd (as a rule, the free concentration of one partner at which half of the binding sites on the other are occupied at equilibrium, for simple one-to-one binding) with sST2 recombinant turned out to be 23 µM.

B2: scFv-αsST2 (scFv 96-1) (antibody)
chain: MQVQLQQWGAGLLKPSETLSLTCAVYGGSFSGYYWSWIRQPPGKGLEWIGEINHSGSTNYNPSLKSRVTVSLDTSKNQFSLKLSSVTAADTAVYYCARGRGLVRFDSWGQGTTVTVSSGGGGSGGGGSGGGGSEIVLTQSPGTLSLSPGDRATLSCRASQFVGSSSVAWYQQRPGQAPRLLIYAAVSRASGIPDRFSGGGSGTDFTLTISRLEPEDSAVYYCLQYGSALYTFGQGTKLEIK
The molecule B2 came in with a Kd with SKECF peptide of 1.71 µM.
